Where two headings read alike, the source gives them in different places.

The source of these data is patent US20100196310A1, “METHODS OF TREATING CANCER BY ADMINISTERING HUMAN IL-18 COMBINATIONS” (SMITHKLINE BEECHAM CORPORATION, priority 2007, published 2010).

Data set [1] relates to murine colon carcinoma, Colo 26. As to the kind of experiment: IL-18 and 5-FU combination therapy in syngeneic model of murine colon cancer Colo26. Format: in vivo, BALB/c mice. Particulars: monotherapy with 5-FU alone or mIL-18 alone. As for the experimental part: This study aimed to evaluate the efficacy of mIL-18 (SEQ ID NO:2) combination therapy with 5-fluorouracil (5-FU), as compared to monotherapy with 5-FU, or mIL-18 (SEQ ID NO:2) alone. Our study was performed in a well established syngeneic subcutaneous model of murine colon carcinoma, Colo 26, in BALB/c mice. The dosing with mIL-18 (SEQ ID NO:2) was performed daily with 10 μg/mouse s.c. on days 10-30 after tumor inoculation. The dosing with 5-FU was performed i.p. twice a week in the ascending dose: 27, 45 and 74 μg/mouse.
The data comparing tumor volumes in different treatment groups were evaluated at a selected representative time-point, and were expressed as mean+/−SD (FIG. 21), and as median+/−range (FIG. 22). The data were first checked for normal distribution (Gaussian approximation), and standard deviation values were compared to make sure that there is an equal variance. […] Therefore, a non-parametric test (Kruskal-Wallis analysis and Dunn's comparison test) was used for the statistical evaluation. […] FIG. 24 (median+/−SD) and FIG. 25 (mean+/−SD) show the effect of IL-18 and 5-FU combination therapy in same Colo26 syngeneic colon tumor model. […]
Survival of mice bearing Colo26 in different treatment groups was plotted in a Kaplan-Meyer survival curve analysis, and evaluated by Logrank test, and is shown in FIG. 26. […]

The test system of data set [2] is NK cells. The data set is described as follows: NK cytotoxicity assay in the EL-4 T-cell lymphoma model. Particulars: FIG. 12; 21 hours post-treatment.
The subject of data set [3] is EL-4 murine T-lymphoma cells. The data set is described as follows: IL-18 combination with doxorubicin in EL-4 T cell lymphoma (survival, increase in lifespan). Format: in vivo, C57/BL/6 mice. As for the experimental part: Studies were performed in female C57/BL/6 mice. As a general protocol, C57/BL mice were injected I.P. with 0.2 cc of stock EL-4 cells. EL-4 murine T-lymphoma cells were expanded in RPMI w/10% FCS. All animals were randomized to six or seven mice per study group with food and water ad libitum.
EL-4 cells were harvested on day 0, counted and implanted I.P. with 5×10^5 EL-4 lymphoma cells. Animals were randomized to treatment groups of 6/7 animals on Day 3. Doxorubicin was administered IV on Days 3 &10, pos-implantation. mIL-18 (SEQ ID NO:2) was administered S.C. on Days 3-16. The animals were observed daily for toxicity and mortality.
All animals tolerated dosing schedule and levels well by gross observation. On day 16, all dosing was terminated, and median vehicle death occurred on day 17.5. All vehicle mice expired between days 16-18 post-implantation. Increase in lifespan was calculated by study group/vehicle group—1×100%. For mIL-18 (SEQ ID NO:2) combination therapy with doxorubicin in EL-4 T cell lymphoma, the data were analyzed with respect to median survival time and increase in lifespan.

For data set [4] the following is noted: cited from earlier work.
In another data set the test system is MOPC-315 plasmacytoma. As to the kind of experiment: IL-18 monotherapy in advanced MOPC-315 plasmacytoma model. Format: in vivo, mice.
For data set [5], the system named is NK cells.

In the case of `O=c1[nH]cc(F)c(=O)[nH]1` [5-FU, 5-fluorouracil, reference compound], the “therapeutic effect on tumor growth compared to control” value in data set [1] is “did not show a therapeutic effect better than a control”.
Consider `COc1cccc2c1C(=O)c1c(O)c3c(c(O)c1C2=O)C[C@@](O)(C(=O)CO)C[C@@H]3O[C@H]1C[C@H](N)[C@H](O)[C@H](C)O1` [doxorubicin, Doxorubicin, reference compound], for which the NK cytotoxicity result in the data set with NK cells [2] is “impaired”. For the same molecule, the increase in lifespan entry in data set [3] (doxorubicin monotherapy, 12 mg/kg, IV days 3 & 10) is “minimal increase in lifespan”.
With “human IL-18: recombinant mature form of human interleukin-18, expressed in a non-pathogenic strain of Escherichia coli”, in data set [4] (2000 μg/kg administered weekly for up to 24 weeks, patients with renal cell carcinoma and metastatic melanoma), the “toxicity at the highest dose tested” value was “no significant toxicity”. Moreover, in data set [4] (doses up to 2000 μg/kg weekly for up to 24 weeks), the maximum tolerated dose entry was “not identified”.

B1: mIL-18: Recombinant murine IL-18 (SEQ ID NO:2), used in the pre-clinical studies (protein)
chain: NFGRLHCTTAVIRNINDQVLFVDKRQPVFEDMTDIDQSASEPQTRLIIYMYKDSEVRGLAVTLSVKDSKMSTLSCKNKIISFEEMDPPENIDDIQSDLIFFQKRVPGHNKMEFESSLYEGHFLACQKEDDAFKLILKKKDENGDKSVMFTLTNLHQS
modifications: Murine
In the case of B1, the anti-tumor effect entry in the data set on MOPC-315 plasmacytoma (advanced tumor, 5 mg/Kg daily for approximately 30 days) is “reproducible tumor regressions and cure”. For the same molecule, in the data set on MOPC-315 plasmacytoma (after cure by murine IL-18), the “outcome of rechallenge with parental tumor” value is “tumor rejection”. For the same molecule, in the data set with MOPC-315 plasmacytoma (severe combined immunodeficient mice bearing advanced MOPC-315 tumors, similar schedule), the “anti-tumor effect in SCID mice” value is “failed to regress”. Moreover, the “therapeutic effect on tumor growth compared to control” value in data set [1] is “did not show a therapeutic effect better than a control”. Also, in the data set with NK cells [5], the NK cytotoxicity result was “robust NK cytotoxicity”. Moreover, in data set [3] (IL-18 monotherapy at 1, 5 and 25 ug/dose, S.C. days 3-16), the increase in lifespan entry was “did not show any increase in lifespan”.
